# Laboratory results taken from the MegaScale stability set (Tsuboyama et al. 2023).
# B1: HEEH_KT_rd6_0007 (parent)
# chain: SIEEEIKKAEEAKEKGKTFIHGDFVATTEELLDELLKRLRKKL
# Variants of: B1
# Assay: folding stability dG (cDNA display proteolysis); higher = more stable
# Conditions: PBS, room temperature
row,Variant,folding stability dG [kcal/mol]
1,SIEEEIKKAEEAKEKGKTFYHGDFVATTEELLDELLKRLRKKL [I20Y],1.02
2,SIEEEIKKAEEAKEKGKTFWHGDFVATTEELLDELLKRLRKKL [I20W],1.13
3,SIEEEIKKAEEAKEKGKTFIHGDFMATTEELLDELLKRLRKKL [V25M],1.18
4,SIEEEIKKAEEAKEKGKTFIHGDFNATTEELLDELLKRLRKKL [V25N],0.974
5,SIEEEIKKAEEAKEKGKTFIHGDFQATTEELLDELLKRLRKKL [V25Q],1.07
6,SIEEEIKKAEEAKEKGKTFIHGDFLATTEELLDELLKRLRKKL [V25L],1.11
7,SIEEEIKKAEEAKEKGKTFIHGDFDATTEELLDELLKRLRKKL [V25D],0.749
8,SIEEEIKKAEEAKEKGKTFIHGDFHATTEELLDELLKRLRKKL [V25H],1.28
9,SIEEEIKKAEEAKEKGKTFIHGDFEATTEELLDELLKRLRKKL [V25E],1.05
10,SIEEEIKKAEEAKEKGKTFIHGDFRATTEELLDELLKRLRKKL [V25R],0.704
11,SIEEEIKKAEEAKEKGKTFIHGDFYATTEELLDELLKRLRKKL [V25Y],1.23
12,SIEEEIKKAEEAKEKGKTFIHGDFAATTEELLDELLKRLRKKL [V25A],1.1
13,SIEEEIKKAEEAKEKGKTFIHGDFGATTEELLDELLKRLRKKL [V25G],0.704
14,SIEEEIKKAEEAKEKGKTFIHGDFWATTEELLDELLKRLRKKL [V25W],1.39
15,SIEEEIKKAEEAKEKGKTFIHGDFTATTEELLDELLKRLRKKL [V25T],0.907
16,SIEEEIKKAEEAKEKGKTFIHGDFCATTEELLDELLKRLRKKL [V25C],1.94
17,SIEEEIKKAEEAKEKGKTFIHGDFFATTEELLDELLKRLRKKL [V25F],1.31
18,SIEEEIKKAEEAKEKGKTFIHGDFKATTEELLDELLKRLRKKL [V25K],0.938
19,SIEEEIKKAEEAKEKGKTFIHGDFSATTEELLDELLKRLRKKL [V25S],0.912
20,SIEEEIKKAEEAKEKGKTFIHGDFIATTEELLDELLKRLRKKL [V25I],1.41

row,Variant,folding stability dG [kcal/mol]
1,SIEEEIKKAEEAKEKGKTFIHGDFPATTEELLDELLKRLRKKL [V25P],0.68
2,SIEEEIKKAEEAKEKGKTFIHGDFVAETEELLDELLKRLRKKL [T27E],1.24
3,SIEEEIKKAEEAKEKGKTFIHGDFVADTEELLDELLKRLRKKL [T27D],2.16
4,SIEEEIKKAEEAKEKGKTFIHGDFVACTEELLDELLKRLRKKL [T27C],1.76
5,SIEEEIKKAEEAKEKGKTFIHGDFVAATEELLDELLKRLRKKL [T27A],1.27
6,SIEEEIKKAEEAKEKGKTFIHGWFVATTEELLDELLKRLRKKL [D23W],1.64
7,SIEEEIKKAEEAKEKGKTFIHGMFVATTEELLDELLKRLRKKL [D23M],1.26
8,SIEEEIKKAEEAKEKGKTFIHGFFVATTEELLDELLKRLRKKL [D23F],1.48
9,SIEEEIKKAEEAKEKGKTFIHGSFVATTEELLDELLKRLRKKL [D23S],1.36
10,SIEEEIKKAEEAKEKGKTFIHGNFVATTEELLDELLKRLRKKL [D23N],1.4
11,SIEEEIKKAEEAKEKGKTFIHGHFVATTEELLDELLKRLRKKL [D23H],1.02
12,SIEEEIKKAEEAKEKGKTFIHGEFVATTEELLDELLKRLRKKL [D23E],1.16
13,SIEEEIKKAEEAKEKGKTFIHGKFVATTEELLDELLKRLRKKL [D23K],1.06
14,SIEEEIKKAEEAKEKGKTFIHGTFVATTEELLDELLKRLRKKL [D23T],1.36
15,SIEEEIKKAEEAKEKGKTFIHGLFVATTEELLDELLKRLRKKL [D23L],1.31
16,SIEEEIKKAEEAKEKGKTFIHGAFVATTEELLDELLKRLRKKL [D23A],1.26
17,SIEEEIKKAEEAKEKGKTFIHGYFVATTEELLDELLKRLRKKL [D23Y],1.3
18,SIEEEIKKAEEAKEKGKTFIHGQFVATTEELLDELLKRLRKKL [D23Q],1.14
19,SIEEEIKKAEEAKEKGKTFIHGCFVATTEELLDELLKRLRKKL [D23C],1.91
20,SIEEEIKKAEEAKEKGKTFIHGGFVATTEELLDELLKRLRKKL [D23G],1.16

row,Variant,folding stability dG [kcal/mol]
1,SIEEEIKKAEEAKEKGKTFIHGVFVATTEELLDELLKRLRKKL [D23V],1.38
2,SIEEEIKKAEEAKEKGKTFIHGRFVATTEELLDELLKRLRKKL [D23R],0.773
3,SIEEEIKKAEEAKEKGKTFIHGIFVATTEELLDELLKRLRKKL [D23I],1.52
4,SIEEEIKKAEEAKEKGKTFIHGPFVATTEELLDELLKRLRKKL [D23P],0.958
5,SIEEEIKKAEEAKEKGKTFIHGDFVRTTEELLDELLKRLRKKL [A26R],0.603
6,SIEEEIKKAEEAKEKGKTFIHGDFVCTTEELLDELLKRLRKKL [A26C],1.24
7,SIEEEIKKAEEAKEKGKTFIHGDFVDTTEELLDELLKRLRKKL [A26D],0.604
8,SIEEEIKKAEEAKEKGKTFIHGDFVLTTEELLDELLKRLRKKL [A26L],1.03
9,SIEEEIKKAEEAKEKGKTFIHGDFVITTEELLDELLKRLRKKL [A26I],1.27
10,SIEEEIKKAEEAKEKGKTFIHGDFVVTTEELLDELLKRLRKKL [A26V],0.954
11,SIEEEIKKAEEAKEKGKTFIHGDFVETTEELLDELLKRLRKKL [A26E],0.506
12,SIEEEIKKAEEAKEKGKTFIHGDFVPTTEELLDELLKRLRKKL [A26P],0.691
13,SIEEEIKKAEEAKEKGKTFIHGDFVHTTEELLDELLKRLRKKL [A26H],0.502
14,SIEEEIKKAEEAKEKGKTFIHGDFVKTTEELLDELLKRLRKKL [A26K],0.515
15,SIEEEIKKAEEAKEKGKTFIHGDFVFTTEELLDELLKRLRKKL [A26F],1.2
16,SIEEEIKKAEEAKEKGKTFIHGDFVNTTEELLDELLKRLRKKL [A26N],0.638
17,SIEEEIKKAEEAKEKGKTFIHGDFVMTTEELLDELLKRLRKKL [A26M],0.854
18,SIEEEIKKAEEAKEKGKTFIHGDFVWTTEELLDELLKRLRKKL [A26W],1.24
19,SIEEEIKKAEEAKEKGKTFIHGDFVQTTEELLDELLKRLRKKL [A26Q],0.685
